The results in this text go back to article PMC7337497 (The Journal of Cell Biology, 2020).

The target in assay [1] is T1, ATG12–ATG5-ATG16L1-GFP complex (E3-GFP) (human, UniProt O94817 1-140; Q9H1Y0 1-275; Q676U5-1 1-607, conjugated to a lysine residue in ATG5 (ATG12–ATG5 conjugate) | a lysine residue conjugated to ATG12).
T1 construct: ATG12, human; synthetic gene codon optimised for Sf9; conjugated to ATG5 by coexpressed ATG7 and ATG10; ATG5, human; ATG16L1 isoform β, human; Dimer with two copies of each subunit by static light scattering; no TEV cleavage is described for this complex; also called GFP-tagged E3; E3 complex; source: Sf9, coexpressed from one poly-cistronic construct with ATG7 and ATG10, purified (StrepTactin, …)
Briefly: microscopy-based bead protein-protein interaction assay; RFP-Trap beads coated with mCherry-WIPI2d, mCherry-Atg21 or mCherry as baits, 5 µM E3-GFP as prey; 25 mM Hepes pH 7.5, 150 mM NaCl, 1 mM DTT; at least 30 min at RT (22°C), confocal imaging. Particulars: both partners purified.

Assay [2] deals with T1, ATG12–ATG5-ATG16L1-GFP complex (E3-GFP). Briefly: microscopy-based bead protein-protein interaction assay; 500 nM GST-mCherry-WIPI3 or GST-mCherry-WIPI4 and 100 nM E3-GFP with glutathione-coated polystyrene beads; 25 mM Hepes pH 7.5, 150 mM NaCl, 1 mM TCEP; 30 min RT, washed three times, confocal imaging. Particulars: both partners purified.

T1 sequence (O94817 whole entry, chain 1 of 3, canonical isoform): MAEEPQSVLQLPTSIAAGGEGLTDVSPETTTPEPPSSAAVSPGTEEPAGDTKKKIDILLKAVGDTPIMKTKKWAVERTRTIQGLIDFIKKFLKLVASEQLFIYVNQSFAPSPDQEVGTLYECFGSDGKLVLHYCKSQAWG
T1 sequence (Q9H1Y0 whole entry, chain 2 of 3, canonical isoform): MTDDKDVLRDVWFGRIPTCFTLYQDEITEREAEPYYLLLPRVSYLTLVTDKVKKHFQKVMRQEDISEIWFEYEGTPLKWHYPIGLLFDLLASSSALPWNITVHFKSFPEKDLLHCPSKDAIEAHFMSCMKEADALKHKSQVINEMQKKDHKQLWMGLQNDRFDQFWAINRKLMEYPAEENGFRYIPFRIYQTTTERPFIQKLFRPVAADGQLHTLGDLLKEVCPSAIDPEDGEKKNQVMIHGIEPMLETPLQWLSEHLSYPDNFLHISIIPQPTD
T1 sequence (Q676U5 whole entry, chain 3 of 3, canonical isoform): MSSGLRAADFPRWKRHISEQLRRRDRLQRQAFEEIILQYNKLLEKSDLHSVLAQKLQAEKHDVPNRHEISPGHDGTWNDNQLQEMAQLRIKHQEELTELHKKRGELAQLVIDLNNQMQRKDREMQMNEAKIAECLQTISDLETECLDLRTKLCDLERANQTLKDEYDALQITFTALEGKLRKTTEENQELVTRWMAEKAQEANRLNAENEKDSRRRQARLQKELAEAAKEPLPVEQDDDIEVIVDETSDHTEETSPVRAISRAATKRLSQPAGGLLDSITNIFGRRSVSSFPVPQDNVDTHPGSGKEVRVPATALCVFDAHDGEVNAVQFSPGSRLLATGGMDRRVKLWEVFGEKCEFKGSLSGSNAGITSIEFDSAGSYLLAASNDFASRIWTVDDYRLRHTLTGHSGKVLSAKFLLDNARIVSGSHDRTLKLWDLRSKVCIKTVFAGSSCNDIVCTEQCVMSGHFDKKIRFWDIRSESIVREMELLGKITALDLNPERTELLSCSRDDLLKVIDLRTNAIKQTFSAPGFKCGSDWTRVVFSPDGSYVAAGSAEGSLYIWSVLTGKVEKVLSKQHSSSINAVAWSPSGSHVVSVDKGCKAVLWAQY

B1: mCherry-Atg21 (natural protein, S. cerevisiae, UniProt Q02887 1-496, looked up)
chain: MKVLQFNQDATCCVVAASSHQISIFNCDPFGKCFEIDTKNSKKKTSNNNGSASNSESRNNEESILITNGSRDRTDAEEEEDNEDNALVTGNILKEGEFVIEMLFSTSLIAIADRGQGLNKGKKLKIVNTKRKCTICEIVFPHEIVDVVMNRKRMCVLLESDQIFIYDISCMKPLETIDLWEDHYKRSQANSFSNASNTGTLEGDSANLNRVATNLLANATQKSVNGSNPSVRTRRNSLRSKIRPRMVLSNDDRSILCFTAYSSPKKNKPNSEALYDVVIYDTLNVTPVNYLNSVHKGNVACLAVSHDGKLLATASDKGTIIRVFHTGVDSDYMSSRSLFKEFRRGTRLCNLYQLAFDKSMTMIGCVGDTDTIHLFKLDDASNSLPGDNSSNGHWNEEEYILASNSNPSMGTPKEIPLSKPRIANYFSKKIKSSIPNQNLSRNFAYITVNESNRSCLGFPDEFPNQVYIASDDGTFSIYSIPSKPGECVLTKNNKFT
notes: also called yeast Atg21; source: E. coli Rosetta pLysS, purified (Ni-NTA, TEV, Superdex 200); not shown: 6xHis, N-terminal, cleaved; mCherry, N-terminal, kept
As to B1, the binding result in assay [1] is given as “binds”.

B2: GST-mCherry-WIPI3 (natural protein)
chain: not shown
notes: WIPI3, human; synthetic gene; Construct GST-TEV-mCherry-WIPI3; held on glutathione beads in the assay; also called GST-mCherry–tagged WIPI3; source: HEK293 GnTi, transfected, purified; not shown: GST, N-terminal, kept; mCherry, N-terminal, kept
Take B2: the binding result in assay [2] was “binds”.
